B1: Arabidopsis thaliana AtSLY1 (yeast bait fusion) [Arabidopsis thaliana] / A. thaliana GAI (yeast prey fusion) [Arabidopsis thaliana] (parent complex)
chain 1: MKRSTTDSDLAGDAHNETNKKMKSTEEEEIGFSNLDENLVYEVLKHVDAKTLAMSSCVSKIWHKTAQDERLWELICTRHWTNIGCGQNQLRSVVLALGGFRRLHSLYLWPLSKPNPRARFGKDELKLTLSLLSIRYYEKMSFTKRPLPESK
chain 2: MKRDHHHHHHQDKKTMMMNEEDDGNGMDELLAVLGYKVRSSEMADVAQKLEQLEVMMSNVQEDDLSQLATETVHYNPAELYTWLDSMLTDLNPPSSNAEYDLKAIPGDAILNQFAIDSASSSNQGGGGDTYTTNKRLKCSNGVVETTTATAESTRHVVLVDSQENGVRLVHALLACAEAVQKENLTVAEALVKQIGFLAVSQIGAMRKVATYFAEALARRIYRLSPSQSPIDHSLSDTLQMHFYETCPYLKFAHFTANQAILEAFQGKKRVHVIDFSMSQGLQWPALMQALALRPGGPPVFRLTGIGPPAPDNFDYLHEVGCKLAHLAEAIHVEFEYRGFVANTLADLDASMLELRPSEIESVAVNSVFELHKLLGRPGAIDKVLGVVNQIKPEIFTVVEQESNHNSPIFLDRFTESLHYYSTLFDSLEGVPSGQDKVMSEVYLGKQICNVVACDGPDRVERHETLSQWRNRFGSAGFAAAHIGSNAFKQASMLLALFNGGEGYRVEESDGCLMLGWHTRPLIATSAWKLSTN

Variants of: B1
Test: yeast 2-hybrid; parent: 0.3; read off a plot

| response | Variant |
| --- | --- |
| ~44 β-galactosidase units | chain 1 MKRSTTDSDLAGDAHNETNKKMKSTEEEEIGFSNLDENLVYEVLKHVDAKTLAMSSCVSKIWHKTAQDERLWELICTRHWTNIGCGQNQLRSVVLALGGFRRLHSLYLWPLSKPNPRARFGKDELKLSLSLLSIRYYEKMSFTKRPLPESK [chain 1 T128S] |
| ~86 β-galactosidase units | chain 1 MKRSTTDSDLAGDAHNETNKKMKSTEEEEIGFSNLDENLVYEVLKHVDAKTLAMSSCVSKIWHKTAQDERLWELICTRHWTNIGCGQNQLRSVVLALGGFRRLHSLYLWPLSKPNPRARFGKDELKLALSLLSIRYYEKMSFTKRPLPESK [chain 1 T128A] |
| ~15 β-galactosidase units | chain 1 E138K |
| ~41 β-galactosidase units | chain 1 MKRSTTDSDLAGDAHNETNKKMKSTEEEEIGFSNLDENLVYEVLKHVDAKTLAMSSCVSKIWHKTAQDERLWELICTRHWTNIGCGQNQLRSVVLALGGFRRLHSLYLWPLSKSNPRARFGKDELKLTLSLLSIRYYEKMSFTKRPLPESK [chain 1 P114S] |
| ~37 β-galactosidase units | chain 1 MKRSTTDSDLAGDAHNETNKKMKSTEEEEIGFSNLDENLVYEVLKHVDAKTLAMSSCVSKIWHKTAQDERLWELICTRHWTNIGCGQNQLRSVVLALGGFRRLHSLYLWPLSKLNPRARFGKDELKLTLSLLSIRYYEKMSFTKRPLPESK [chain 1 P114L] |
| ~19 β-galactosidase units | chain 1 MKRSTTDSDLAGDAHNETNKKMKSTEEEEIGFSNLDENLVYEVLKHVDAKTLAMSSCVSKIWHKTAQDERLWELICTRHWTNIGCGQNQLRSVVLALGGFRRLHSLYLWPLSKPNPRARFGKDELELTLSLLSIRYYEKMSFTKRPLPESK [chain 1 K126E] |

Variants of: B1
Test: pull-down (IP: His, immunoblot); parent: 1

| ratio to parent | Variant |
| --- | --- |
| 2.36 | chain 1 MKRSTTDSDLAGDAHNETNKKMKSTEEEEIGFSNLDENLVYEVLKHVDAKTLAMSSCVSKIWHKTAQDERLWELICTRHWTNIGCGQNQLRSVVLALGGFRRLHSLYLWPLSKPNPRARFGKDELKLALSLLSIRYYEKMSFTKRPLPESK [chain 1 T128A] |

Variants of: B1
Test: yeast 2-hybrid; parent: 0.35; read off a plot

| response | Variant |
| --- | --- |
| ~77 β-galactosidase units | chain 1 MKRSTTDSDLAGDAHNETNKKMKSTEEEEIGFSNLDENLVYEVLKHVDAKTLAMSSCVSKIWHKTAQDERLWELICTRHWTNIGCGQNQLRSVVLALGGFRRLHSLYLWPLSKPNPRARFGKDELKLALSLLSIRYYEKMSFTKRPLPESK [chain 1 T128A] |
| ~17 β-galactosidase units | chain 1 E138K |
| ~25 β-galactosidase units | chain 1 MKRSTTDSDLAGDAHNETNKKMKSTEEEEIGFSNLDENLVYEVLKHVDAKTLAMSSCVSKIWHKTAQDERLWELICTRHWTNIGCGQNQLRSVVLALGGFRRLHSLYLWPLSKLNPRARFGKDELKLTLSLLSIRYYEKMSFTKRPLPESK [chain 1 P114L] |

Variants of: B1
Test: pull-down (IP: His, immunoblot); without GST-GID1C, without GA3 (GAI in A Form); parent: 1

| ratio to parent | Variant |
| --- | --- |
| 2.27 | chain 1 MKRSTTDSDLAGDAHNETNKKMKSTEEEEIGFSNLDENLVYEVLKHVDAKTLAMSSCVSKIWHKTAQDERLWELICTRHWTNIGCGQNQLRSVVLALGGFRRLHSLYLWPLSKPNPRARFGKDELKLALSLLSIRYYEKMSFTKRPLPESK [chain 1 T128A] |
| 1.86 | chain 1 E138K |
| 1.89 | chain 1 MKRSTTDSDLAGDAHNETNKKMKSTEEEEIGFSNLDENLVYEVLKHVDAKTLAMSSCVSKIWHKTAQDERLWELICTRHWTNIGCGQNQLRSVVLALGGFRRLHSLYLWPLSKLNPRARFGKDELKLTLSLLSIRYYEKMSFTKRPLPESK [chain 1 P114L] |

Variants of: B1
Test: pull-down (IP: His, immunoblot); with GST-GID1C, with GA3 (GAI in A + A' Forms); parent: 2.41

| response | Variant |
| --- | --- |
| 9.37 relative anti-MBP band intensity (SLY1 without GST-GID1C and GA3 = 1.00) | chain 1 MKRSTTDSDLAGDAHNETNKKMKSTEEEEIGFSNLDENLVYEVLKHVDAKTLAMSSCVSKIWHKTAQDERLWELICTRHWTNIGCGQNQLRSVVLALGGFRRLHSLYLWPLSKPNPRARFGKDELKLALSLLSIRYYEKMSFTKRPLPESK [chain 1 T128A] |
| 3.88 relative anti-MBP band intensity (SLY1 without GST-GID1C and GA3 = 1.00) | chain 1 E138K |
| 7.38 relative anti-MBP band intensity (SLY1 without GST-GID1C and GA3 = 1.00) | chain 1 MKRSTTDSDLAGDAHNETNKKMKSTEEEEIGFSNLDENLVYEVLKHVDAKTLAMSSCVSKIWHKTAQDERLWELICTRHWTNIGCGQNQLRSVVLALGGFRRLHSLYLWPLSKLNPRARFGKDELKLTLSLLSIRYYEKMSFTKRPLPESK [chain 1 P114L] |

Variants of: B1
Test: yeast 2-hybrid; parent: 0.35; read off a plot
Remark: another data set of the same source

| response | Variant |
| --- | --- |
| ~55 β-galactosidase units | chain 1 MKRSTTDSDLAGDAHNETNKKMKSTEEEEIGFSNLDENLVYEVLKHVDAKTLAMSSCVSKIWHKTAQDERLWELICTRHWTNIGCGQNQLRSVVLALGGFRRLHSLYLWPLSKSNPRARFGKDELKLTLSLLSIRYYEKMSFTKRPLPESK [chain 1 P114S] |
| ~63 β-galactosidase units | chain 1 MKRSTTDSDLAGDAHNETNKKMKSTEEEEIGFSNLDENLVYEVLKHVDAKTLAMSSCVSKIWHKTAQDERLWELICTRHWTNIGCGQNQLRSVVLALGGFRRLHSLYLWPLSKLNPRARFGKDELKLTLSLLSIRYYEKMSFTKRPLPESK [chain 1 P114L] |

Reference: PMC10724065, “Evolution of a plant growth-regulatory protein interaction specificity” (Nature Plants, 2023)
